Consider two molecules from publication PMC6868718, “Multiple transcription factors co-regulate the Mycobacterium tuberculosis adaptation response to vitamin C” (BMC Genomics, 2019).

The target of data set [1] is T1, Rv0348 (MosR) (Mycobacterium tuberculosis H37Rv) (UniProt O06299).
T1 sequence: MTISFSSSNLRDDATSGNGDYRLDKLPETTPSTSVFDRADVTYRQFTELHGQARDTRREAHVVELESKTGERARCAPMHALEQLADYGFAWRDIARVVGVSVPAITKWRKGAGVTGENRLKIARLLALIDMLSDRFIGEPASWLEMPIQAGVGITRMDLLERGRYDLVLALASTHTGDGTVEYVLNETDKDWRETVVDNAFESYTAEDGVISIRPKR
The data set can be described thus: EMSA. Background: A gel shift assay detects complexes by their altered migration in electrophoresis.

Data set [2] has as its target T2, Phosphorylated DevR (DevR~P) (Mycobacterium tuberculosis, UniProt P9WMF9 1-217, phosphorylated using 50 mM acetyl phosphate (residue not stated)).
T2 construct: DevR, two-component response regulator of Mycobacterium tuberculosis (devR of the Rv3134c-devR-devS operon), phosphorylated in vitro with acetyl phosphate; also called His6-DevR phosphorylated
The data set can be described thus: native gel or EMSA. The following applies: both partners purified.

T2 sequence (P9WMF9 whole entry): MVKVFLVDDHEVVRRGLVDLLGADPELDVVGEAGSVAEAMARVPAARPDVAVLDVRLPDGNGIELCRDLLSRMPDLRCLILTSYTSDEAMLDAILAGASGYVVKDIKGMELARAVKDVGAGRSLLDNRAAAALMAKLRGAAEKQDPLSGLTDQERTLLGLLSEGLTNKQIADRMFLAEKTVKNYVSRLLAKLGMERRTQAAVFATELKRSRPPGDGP

In the case of “TTACTGGCGGGGACCGCTATCTCCCAGGGGCGTTGGTCCCCACCTGAGGGCCGTTAGTCCTTATCGACCGATGACAGACGCAACCCGTCAGGGCGAGAATGAATCTCACCTATCGCACGGGTGGCTCGTCCAGGTCCACAACCATCGCCCAGCTTTTCACAGCAAAGTCCCAGAAATGGCTTACAGTTGCCGACAGCTGCCGAACCAGCGGCCGTC (double strand) [Rv3134c promoter fragment (devR operon promoter)]”, the binding result in data set [1] was “no binding”.

B1: Rv0348-His6 (natural protein)
chain: T1 sequence
notes: also called mosR; not shown: His6, C-terminal, kept
Consider B1, for which the binding result in data set [2] was “binds”.
